According to US20220267458A1 (Innovent, published 2022):
Residue numbers refer to the chain shown, from its start.

T1: human GITR overexpressed on CHO cells (CHO-GITR) (human, UniProt Q9Y5U5 26-241)
T1 construct: whole, on cells; also called cell surface GITR protein; antigen expressed on the cell surface
T1 sequence (looked up): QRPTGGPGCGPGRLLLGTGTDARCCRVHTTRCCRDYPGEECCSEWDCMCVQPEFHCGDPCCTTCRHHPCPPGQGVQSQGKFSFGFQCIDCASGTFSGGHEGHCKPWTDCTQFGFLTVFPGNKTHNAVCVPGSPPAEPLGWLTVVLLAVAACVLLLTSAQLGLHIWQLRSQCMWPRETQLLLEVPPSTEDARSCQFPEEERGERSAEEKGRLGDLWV

T2: human GITR-His (human, UniProt Q9Y5U5 26-161)
T2 construct: Bought from Acro biosystems; also called GITR-His (Acro biosystems); antigen GITR-His
T2 sequence: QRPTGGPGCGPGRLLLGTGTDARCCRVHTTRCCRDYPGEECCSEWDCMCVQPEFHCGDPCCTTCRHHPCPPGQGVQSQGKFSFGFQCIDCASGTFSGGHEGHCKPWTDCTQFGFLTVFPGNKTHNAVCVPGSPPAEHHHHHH

B1: hcIgG-20 (antibody, V domains shown)
VH: QVQLQESGGGSVQAGGSLRLSCASSGYSRTSRWMAWFRQAPGKEREGVAAIYTGGSSTLYANSMADRVTISQDNAKNTVYLRMNNLKPEDTAMYYCAADKLAGDFWLVDRWRAWGQGTQVTVSS
notes: also called heavy-chain antibody of Nb-20
B2: HzhcIgG-20 (antibody, V domains shown)
VH: QVQLQESGGGLVQPGGSLRLSCAASGYSRTSRWMAWFRQAPGKGLEGVAAIYTGGSSTLYADSVKGRFTISRDNAKNSVYLQMNSLRAEDTAVYYCAADKLAGDFWLVDRWRAWGQGTLVTVSS
notes: Humanized heavy-chain antibody without light chain; also called humanized hcIgG-20; humanized HcIgG
B3: hcIgG-07 (antibody, V domains shown)
VH: QVQLQESGGGLVQAGGSLKLSCTVSGFAFGSSHMSWVRRAPGKGLEWVSTIHSGGGFGDYANSVQGRFTISRDVAKNTLYLQMNSLKPEDTAIYYCALATDWRKPPGQGTQVTVSS
notes: also called heavy-chain antibody of Nb-07
B4: hcIgG-10 (antibody, V domains shown)
VH: B3 VH with A14P, K19R, T23A, V24A
notes: also called heavy-chain antibody of Nb-10
B5: hcIgG-03 (antibody, V domains shown)
VH: QVQLQESGGGSVQAGGSLRLSCAASGYTYSGYCMGWFRQAPGKEHEGVASIVSGLGRPYYADSVKGRFTISQDNAKNTVYLQMNSLKPEDTAMYYCAAEWATKLCSEIPATEWDYWGQGTQVTVSS
notes: also called heavy-chain antibody of Nb-03
B6: hcIgG-09 (antibody, V domains shown)
VH: QVQLQESGGGLVQPGGSLRLSCGASGFTFSSTAMWWFRQAPGKGLEWVSSITSDVSGTYYADSVQGRFTISRDNGKNTVYLQMNSLRSEDTALYYCATSCGFSGGTWSCKYRGQGTQVTVSS
notes: also called heavy-chain antibody of Nb-09
B7: hcIgG-16 (antibody, V domains shown)
VH: QVQLQESGGGSVQAGGSLRLSCAASGYTYNKYSWGWFRQAPGKEREGVAGIDSDGSTSYADSVKGRFTISKDNTKNTLYLQMNSLKPEDTAMYYCAASDWVSAIQALGVLAVRPYEYWGQGTQVTVSS
notes: also called heavy-chain antibody of Nb-16

molecular target: T1, human GITR overexpressed on CHO cells …; experiment: flow cytometry on CHO-GITR cells, PE anti-human Fc detection, MFI

| EC50 (read off the curve) [nM] | Binder |
| --- | --- |
| ~2 | B1 |
| ~2 | B2 |

molecular target: T1, human GITR overexpressed on CHO cells …; experiment: flow cytometry on CHO-GITR cells, PE anti-human Fc detection, MFI; direct binding titration, the table row is labelled IC50, nM is taken from the concentration axis
Description: (1) Cell preparation: The pCHO1.0 vector (Invitrogen) carrying human GITR cDNA cloned to a multiple cloning site (MCS) was transfected into Chinese hamster ovary cancer cells (CHO) (Invitrogen) to produce human GITR-overexpressing CHO cells (CHO-GITR), the CHO cells (CHO-GITR) overexpressing human GITR on the surface thereof were counted, and diluted to 1×10⁶ cells/mL, and added to a U-bottom 96-well plate with 100 μL/well.
(1) Detection: The cell suspension was centrifuged at 400 g for 5 min to remove the cell medium. Serial dilutions of the sample were added to a U-shaped plate, and then the cells were resuspended and added to the plate with 100 μL/well. The plate was put onto the ice to stand for 30 min The cell suspension was centrifuged at 400 g for 5 min, and the supernatant was discarded. The cells were washed once with PBS, and then centrifuged at 400 g for 5 min to remove PBS. 100 μL of the solution of PE-conjugated anti-human Fc antibody (Jackson Immuno Research) diluted at a ratio of 1:200 was added to each well, and the cells were incubated in dark on the ice for 30 min The cell suspension was centrifuged at 400 g for 5 min, and the supernatant was discarded. The cells were washed once with PBS. The cells were resuspended with 100 μL of PBS.

| IC50 [nM] | Binder |
| --- | --- |
| 1.44 | B3 |
| 1.47 | B4 |
| 102 | B5 |
| 0.511 | B1 |
| 4.89 | B6 |
| 34.1 | B7 |

molecular target: T2, human GITR-His; experiment: ForteBio BLI, antibody on AHQ tip, human GITR-His 100 nM in solution
Description: (§1) (2) Experimental procedure: 100 μl of SD buffer and antibodies (hcIgG-02, hcIgG-03, hcIgG-04, hcIgG-07, hcIgG-09, hcIgG-10, hcIgG-16 and hcIgG-20, control antibody), GITR-His (Acro biosystems) were added to a 96-well half-volume black polystyrene microplate. The plate was arranged according to the positions of the samples, the position of the sensor was selected, and the operation procedures were set as: Baseline, Loading ˜1 nm, Baseline, Association and Dissociation, each running for a time depending on the binding and dissociation rates of the sample, at a rotation speed of 400 rpm and a temperature of 30° C.
In this experiment, binding kinetics and affinity for the antibody hcIgG-20 before humanization and the antibody HzhcIgG-20 after humanization were determined using the ForteBio method in the same way as in Example 3. ForteBio results are listed in Table 4. hcIgG-20 and HzhcIgG-20 retain the binding ability to GITRs, and the affinity is higher than the control antibody TRX518.

| Kd [nM] | koff [s⁻¹] | kon [M⁻¹ s⁻¹] | Binder |
| --- | --- | --- | --- |
| 4.35 | 0.000917 | 211000 | B1 |
| 4 | 0.00128 | 321000 | B2 |

molecular target: GITR protein overexpressed on Hela cells (Hela-GITR-NF-κB-Luc-Rep); experiment: cell-based or functional assay

| EC50 for the activation (NF-κB luciferase reporter) [nM] | Binder |
| --- | --- |
| 0.689 | B1 |
| 0.663 | B2 |

molecular target: T2, human GITR-His; experiment: ForteBio BLI, antibody on AHQ tip, human GITR-His 100 nM in solution, 1:1 model
Description: as §1
(3) A 1:1 binding model was adopted for kinetic analysis.

| Kd [nM] | koff [s⁻¹] | kon [M⁻¹ s⁻¹] | Binder |
| --- | --- | --- | --- |
| 4.08 | 0.00099 | 243000 | B3 |
| 3.22 | 0.000742 | 231000 | B4 |
| 5.3 | 0.00172 | 324000 | B5 |
| 1.85 | 0.000646 | 349000 | B1 |
| 1.89 | 0.000487 | 257000 | B6 |
| 9.81 | 0.00114 | 117000 | B7 |
